Read-outs that look alike come from different tables or passages of the source.
Tests used:
[1] = CPG2 dimer stability by non-reducing SDS-polyacrylamide gel electrophoresis of COS cell extracts; conditions: sample not heated
Text: To test this, CPG2* was transiently expressed in COS cells and the stability of the dimers determined by non-reducing SDS-polyacrylamide gels.

[2] = Enzyme kinetic studies of CPG2-derived enzymes in detergent soluble cell extracts, MTX as substrate; format: biochemical
Text: Detergent soluble cell extracts, and enzyme kinetic analyses have been described previously (Marais et al (1996) Cancer Res. 56, 4735-4742; Marais et al (1997) Nature Biotech. 15, 1373-1377).

| Molecule | dimer stability [1] | Catalytic activity (%) ([2]; specific activity of COS/CPG2* (50 ng CPG2*) assigned as 100%) | Km ([2]; substrate MTX, detergent soluble cell extract, read-out: Km (μM MTX)) | Km ([2]; unit μm [sic], read-out: Km) |
| --- | --- | --- | --- | --- |
| CPG2*(Q)3: cytosolic CPG2* bearing three asparagine to glutamine mutations (N222, N264, N272) (protein) ALAQKRDNVLFQAATDEQPAVIKTLEKLVNIETGTGDAEGIAAAGNFLEAELKNLGFTVTRSKSAGLVVGDNIVGKIKGRGGKNLLLMSHMDTVYLKGILAKAPFRVEGDKAYGPGIADDKGGNAVILHTLKLLKEYGVRDYGTITVLFNTDEEKGSFGSRDLIQEEAKLADYVLSFEPTSAGDEKLSLGTSGIAYVQVQITGKASHAGAAPELGVNALVEASDLVLRTMNIDDKAKNLRFQWTIAKAGQVSNIIPASATLNADVRYARNEDFDAAMKTLEERAQQKKLPEADVKVIVTRGRPAFNAGEGGKKLVDKAVAYYKEAGGTLGVEERTGGGTDAAYAALSGKPVIESLGLPGFGYHSDKAEYVDISAIPRRLYMAARLIMDLGAGK | unstable |  |  |  |
| COS/stCPG2 (Q, NWV, Q): CPG2 with T266 altered to V266 in the context of Q222 and Q272 (protein, UniProt P06621 23-415, looked up, variant N222Q T266V N272Q, surface tethered, CPG2 with T266 altered to V266 in the context of Q222 and Q272) Carboxypeptidase G2: ALAQKRDNVLFQAATDEQPAVIKTLEKLVNIETGTGDAEGIAAAGNFLEAELKNLGFTVTRSKSAGLVVGDNIVGKIKGRGGKNLLLMSHMDTVYLKGILAKAPFRVEGDKAYGPGIADDKGGNAVILHTLKLLKEYGVRDYGTITVLFNTDEEKGSFGSRDLIQEEAKLADYVLSFEPTSAGDEKLSLGTSGIAYVQVQITGKASHAGAAPELGVNALVEASDLVLRTMNIDDKAKNLRFNWVIAKAGQVSNIIPASATLNADVRYARNEDFDAAMKTLEERAQQKKLPEADVKVIVTRGRPAFNAGEGGKKLVDKAVAYYKEAGGTLGVEERTGGGTDAAYAALSGKPVIESLGLPGFGYHSDKAEYVDISAIPRRLYMAARLIMDLGAGK |  | 55% | 90 µM | 90 µM |
| CPG2*(N264L): cytosolic CPG2* with N to L substitution at position 264 (protein) ALAQKRDNVLFQAATDEQPAVIKTLEKLVNIETGTGDAEGIAAAGNFLEAELKNLGFTVTRSKSAGLVVGDNIVGKIKGRGGKNLLLMSHMDTVYLKGILAKAPFRVEGDKAYGPGIADDKGGNAVILHTLKLLKEYGVRDYGTITVLFNTDEEKGSFGSRDLIQEEAKLADYVLSFEPTSAGDEKLSLGTSGIAYVQVNITGKASHAGAAPELGVNALVEASDLVLRTMNIDDKAKNLRFLWTIAKAGNVSNIIPASATLNADVRYARNEDFDAAMKTLEERAQQKKLPEADVKVIVTRGRPAFNAGEGGKKLVDKAVAYYKEAGGTLGVEERTGGGTDAAYAALSGKPVIESLGLPGFGYHSDKAEYVDISAIPRRLYMAARLIMDLGAGK | migrated as a monomer |  |  |  |
| CPG2*(N272): cytosolic CPG2* with N to L substitution at position 272 (protein) ALAQKRDNVLFQAATDEQPAVIKTLEKLVNIETGTGDAEGIAAAGNFLEAELKNLGFTVTRSKSAGLVVGDNIVGKIKGRGGKNLLLMSHMDTVYLKGILAKAPFRVEGDKAYGPGIADDKGGNAVILHTLKLLKEYGVRDYGTITVLFNTDEEKGSFGSRDLIQEEAKLADYVLSFEPTSAGDEKLSLGTSGIAYVQVNITGKASHAGAAPELGVNALVEASDLVLRTMNIDDKAKNLRFNWTIAKAGLVSNIIPASATLNADVRYARNEDFDAAMKTLEERAQQKKLPEADVKVIVTRGRPAFNAGEGGKKLVDKAVAYYKEAGGTLGVEERTGGGTDAAYAALSGKPVIESLGLPGFGYHSDKAEYVDISAIPRRLYMAARLIMDLGAGK | formed stable dimers |  |  |  |

Source: US20040014187A1, “Bacterial carboxypeptidase cpg2 variants and their use in gene directed enzyme prodrug therapy” (priority 2000, published 2004)
